This is an account of results in publication PMC10636607 (Cell Reports, 2023).

Experiment [1] addresses T1, biotinylated C-terminal αTSR domain of P. falciparum circumsporozoite protein (P. falciparum, UniProt Q7K740).
T1 construct: also called P. falciparum CSP
Kind of experiment: BLI. Conditions: both partners purified.

Experiment [2] has as its target biotinylated influenza hemagglutinin (HA) from H1N1 A/California/07/2009 (Influenza A virus A/California/07/2009 …, UniProt C3W5X2, strain, biotinylated). The experiment in a line: BLI. Conditions: both partners purified.

T1 sequence (Q7K740 310-375): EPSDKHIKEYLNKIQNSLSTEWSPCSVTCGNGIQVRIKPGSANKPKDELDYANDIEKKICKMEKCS

B1: Fab234 (WT) (Fab, V domains shown)
VH: EVQLVESGGGLVKPGGSLRLSCAASGFNFSTHIMNWVRQAPGKGLEWVSSISSSGTYIYYADSMKGRFTISRDNPKNSLYLQMNSLRAEDTAVYYCARARGFIQFHYYMDVWGKGTTVAVSS
VL: SYVLTQPPSVSVAPGKTARITCGGNNIGSKSVHWHQQRPGQAPVLVVYDDKIRPSGIPERFSGSNSGNTATLIISRVEAGDEADYYCQVWHSSSDPVVFGGGTKLTVL
For the molecule B1, in experiment [1], the binding result is “binds”.

B2: 5J8 Fab (WT) (Fab, V domains shown)
VH: EVQLVESGPGLVKPSDILSLTCAVSGYSISSNYYWGWIRQPPGKGLEWIGSIYHSGSTYYKPSLESRLGISVDTSKNQFSLKLSFVSAADTAVYYCARHVRSGYPDTAYYFDKWGQGTLVTVSS
VL: SYVLTQPPSVSVAPGETARISCGGNNIGTKVLHWYQQTPGQAPVLVVYDDSDRPSGIPERFSGSNSGNTATLTISRVEVGDEADYYCQVWDISTDQAVFGGGTKLTVL
notes: source: ExpiCHO cells, transiently co-transfected, purified (CaptureSelect CH1-XL)
On to B2, for which, in experiment [2], the binding result was “binds”.
